Source: US20040071694A1 (published 2004)

T1: soluble human EPO receptor (human, UniProt P19235 25-250)
T1 construct: extracellular domain; Printed only as 'soluble human EPO receptor'
T1 sequence (looked up): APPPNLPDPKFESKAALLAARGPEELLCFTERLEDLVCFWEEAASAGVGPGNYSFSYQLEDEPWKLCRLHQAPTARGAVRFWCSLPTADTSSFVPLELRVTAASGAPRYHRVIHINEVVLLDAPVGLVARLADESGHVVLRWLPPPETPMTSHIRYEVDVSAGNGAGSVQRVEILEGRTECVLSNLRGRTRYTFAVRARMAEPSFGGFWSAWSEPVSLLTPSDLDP

T2: peptide SE-3 (human)
T2 construct: also called SE-3 peptide
T2 peptide: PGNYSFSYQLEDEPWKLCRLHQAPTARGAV

T3: full length recombinant human EPO receptor (human, UniProt P19235 25-508)
T3 sequence: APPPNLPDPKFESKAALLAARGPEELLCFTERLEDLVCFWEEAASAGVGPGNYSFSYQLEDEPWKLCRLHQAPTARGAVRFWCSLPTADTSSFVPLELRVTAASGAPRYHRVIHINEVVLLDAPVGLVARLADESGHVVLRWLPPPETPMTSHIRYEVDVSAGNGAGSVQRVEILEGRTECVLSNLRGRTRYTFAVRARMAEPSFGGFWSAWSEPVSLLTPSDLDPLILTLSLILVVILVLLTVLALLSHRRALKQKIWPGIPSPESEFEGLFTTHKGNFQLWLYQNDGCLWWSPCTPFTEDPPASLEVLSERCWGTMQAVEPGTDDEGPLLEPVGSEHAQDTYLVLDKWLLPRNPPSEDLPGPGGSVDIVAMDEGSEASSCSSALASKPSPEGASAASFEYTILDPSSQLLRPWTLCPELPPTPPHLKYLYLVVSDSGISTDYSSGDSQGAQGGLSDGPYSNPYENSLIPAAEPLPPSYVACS

T4: biotinylated EpoR (Abbott CHO cell derived ref.# RB69084:4) (UniProt P19235 25-250, limits assumed, biotinylated with biotin-NHS (sites not given))
T4 construct: also called biotin EpoR; biotin-EpoR
T4 sequence (looked up): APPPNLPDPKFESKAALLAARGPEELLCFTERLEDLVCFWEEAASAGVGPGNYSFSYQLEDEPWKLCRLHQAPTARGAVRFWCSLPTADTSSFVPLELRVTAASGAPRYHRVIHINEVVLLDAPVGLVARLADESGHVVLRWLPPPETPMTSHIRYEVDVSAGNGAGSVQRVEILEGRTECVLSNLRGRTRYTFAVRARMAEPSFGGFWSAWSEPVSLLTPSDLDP


What was measured:
[1] = biological target: T1, soluble human EPO receptor; assay: SPR (Biacore 2000), antibody immobilized on chip, soluble receptor 10-200 nM injected
Protocol: Immobilizations of antibody were performed using the default immobilization program in the Biacore software package. Antibodies were diluted to 10 ug/mL in the supplied acetate buffers to prescreen for the appropriate pH at which to conduct the immobilizations. For immobilizations, antibodies were diluted into the appropriate acetate buffer (10 mM acetate pH 4.0) and coupled directly to the chip surface using standard EDC chemistry at three different protein levels (500, 1000, and 1500 RU). The fourth flow cell was mock coupled with EDC to cap the carboxyl groups and provide a background surface as a negative control.
Binding studies were performed by successive injections of varying concentrations of soluble human EPO receptor over the chip surface (500 RU immobilized protein). […]
Data were fit to the models available in the BiaEvaluation 3.0.2 software package (Biacore). […] Dissociation constants were calculated directly from fitting to the Langmuir binding model. For the bivalent analyte model, the dissociation constants were calculated indirectly using the calculated values for the kinetic dissociation and kinetic association constants, kd and kₐ.

[2] = biological target: T2, peptide SE-3; assay: ELISA on plate-coated peptide SE-3
Protocol: Plates were blocked for 30 minutes at room temperature with 100 ul of 5% BSA in PBS (Gibco (Invitrogen (Carlsbad, Calif.)) Cat.#10010). After removal of blocking solution, 50 ul of Ab12 at 5 ug/ml in PBS with 1% BSA was added to wells and plates were incubated at room temperature for 2 hours. Plates were washed three times using a Skatron 400 Plate Washer with PBS/0.05% Tween 20 and 50 ul of secondary antibody diluted in PBS/0.25% BSA/0.05% Tween 20 added to the wells. For Ab12, goat anti-human IgG (Fc)-HRP (Caltag (Burlingame, Calif.) Cat.#H10507) diluted 1:1000 was used and for Ab 71A (available from the American Type Culture Collection HB 11689, also described in U.S. Pat. No. 6,319,499), goat anti mouse IgG (Fc)-HRP (Jackson Laboratories (West Grove, Pa.) Cat.#115-035-164) diluted 1:5000 was used. After a 1 hour incubation at room temperature, plates were washed three times as before and 50 ul of OPD Developing Reagent (Sigma #P9187) added to each well. Color development was stopped by addition of 50 ul of 1N HCl to the wells and optical density measured at 490 nm on a Victor 1420 Multi-Label Counter.

[3] = biological target: T3, full length recombinant human EPO …; assay: cell-based or functional assay
[4] = biological target: T4, biotinylated EpoR (Abbott CHO cell …); assay: ELISA, HEK 293 supernatant titrated 1:2 on biotin-EpoR captured on streptavidin plates

Kd [1] [nM] | binding result [2] | proliferation of F36E cells after storage of Ab12 at 4 C, compared with the EPO control [3] [fold] | Binding (dilution of supernatant) [4] | Binder
17.5 | no binding (tested: 5 ug/ml) | ~10 |  | Ab12 (antibody, human IgG2, V domains shown, Human antibody from XenoMouse; also called ABT2-SCX-012; AB-ABT2-XG2-012) VH: QVQLQESGPGLVKPSETLSLTCTVSGASISSYYWSWIRQPPGKGLEWIGYIYYSGSTNYNPSLKSRVTISVDTSKNQFSLKLRSVTAADTAVYYCARERLGIGDYWGQGTLVTVSS VL: DIQLTQSPSSLSASVGDRVTITCRASQGIRNDLGWYQQKPGKAPKRLIYAASSLQSGVPSRFSGSGSGTEFTLTISSLQPEDFATYYCLQHNTYPPTFGQGTKVEIK
13.9 | no binding |  |  | Ab198 (antibody, human IgG2, V domains shown, Human antibody from XenoMouse) VH: QVQLVESGGGVVQPGRSLRLSCVASGFTFSSYGMHWVRQAPGKGLEWVAVISYDGSNKYYADSVKGRFTISRDNSKNTLYLQMNSLRVEDTAVYYCARDHGGRYVYDYGMDVWGQGTTVTVSS VL: DIQMTQSPSSVSASIGDRVSITCRASQGISSWLAWYQQKPGKAPTLLIYAASTLQRGVPSRFSGSGSGTDFTLTISSLQPEDFATYFCQQANSFPFTFGPGTKVDIK
 |  |  | > 64 dilution 1:n | ABT2-SCX-267 (antibody, V domains shown) VH: QVQLVESGGGVVQPGRSLRLSCAASGFTFSSYGMHWVRQAPGKGLEWVAVISYDGSNKYYADSVKGRFTISRDNSKNTLYLQMNSLRVEDTAVYYCAKDHGGRYVYDYGMDVWGQGTTVTVSS VL: DIQMTQSPSSVSASVGDRVSITCRASQGIGSWLAWYQQKPGQAPTLLIYAASSLQRGVPSRFSGSGSGTDFTLTINSLQPEDFATYFCQQANSFPFTFGPGTKVDVK
 |  |  | 8 dilution 1:n | ABT2-SCX-254 (antibody, V domains shown) VH: QVQLVESGGGVVQPGRSLRLSCAASGFTFSSYGMHWVRQAPGKGLEWVAVIWFDGNNKFYADSVKGRFTISRDNSKNTLYLQMNSLRVEDTAVYYCARGGSYWDYWGQGTLVTVSS VL: DIVMTQTPLFSFVMIGQPASISCRSRQSLVHSDGNTYLNWLQQRPGQPPRLLIYKTSNRFSGVPDRFSGSGAGTDFTLKISRVEAEDVGVYYCMQATQFPITFGQGTRLEIK

Continued, binder first:

Binder | Kd [1] [nM] | binding result [2] | proliferation of F36E cells after storage of Ab12 at 4 C, compared with the EPO control [3] [fold] | Binding (dilution of supernatant) [4]
ABT2-SCX-022 (antibody, V domains shown) VH: QVQLVESGGGVVQPGRSLRLSCAASGFTFSSYGMHWVRQAPGKGLEWVVVISYDGSNKYYADSVKGRFTISRDNSKNTLYLQMNSLRVEDTAVYYCARDHGGRYVYDYGMDVWGQGTTVTVSS VL: DIQMTQSPSSVSASVGDRVSITCRASQGISSWLAWYQQKPGKAPTLLIYAASSLQRGVPSRFSGSGSGTDFTLTISSLQPEDFATYFCQQANSFPFTFGPGTKVDIK |  |  |  | > 64 dilution 1:n
ABT2-SCX-054 (antibody, V domains shown) VH: QVQLVESGGGVVQPGRSLRLSCAASGFTFSKYGMHWVRQAPGKGLEWVAVLWYDGSNKYYADSVKGRFTISRDNSKNTLYLQMNSLRAEDTAVYYCARGPYYFDYWGQGTLVTVSS VL: not shown |  |  |  | > 64 dilution 1:n
